Source: US20100216187A1 (published 2010)

Molecular target: T1, human serum albumin (human, UniProt P02768 25-609)
T1 construct: Bought serum albumin; also called HSA; antigen
Assay: SPR (Biacore), ratio of the off rates at the two pH

| Binder | Ratio pH 7/pH 5 (of kd) |
| --- | --- |
| Nanobody 4D10 (VHH) VHH: EVQLVESGGGLVQAGDSLRLSCTASERPFMSYVMGWFRRAPGKDREFVGAITWSGINTWYSDSVLGRFTISRDNAKNTVYLQMNSLKPEDTAVYYCAVADGVGLYRYERQYDYWGQGTQVTVSS | 6.52 |
| Nanobody 4C8 (VHH) VHH: EVQLVESGGGLVQAGDSLRLSCAASGRTYTPYVMGWFRRAPGKEREFVGAVSWSGTNTWYTDSVKGRFTISRDNAKNTVYLQMNSLKPEDTAVYYCAAGDGVGIYRYEHQYDYWGQGTQVTVSS | 3.35 |
| Nanobody 4D4 (VHH) VHH: EVQLVESGGGLVQAGDSLRLSCAASGRTFSPYVMGWFRRAPGKEREFVGGINWSGSNTWYTDSVKGRFTISRDNVKNMVYLQMNSLKPEDTAVYYCAAGSGVGMYRYERQYDYWGQGTQVTVSS | 2.76 |
| Nanobody 4B6 (VHH) VHH: KVQLVESGGGLVQVGGSLRLSCVASGRTYGGNAMAWFRQAPGKEREFVAGIDWSSENTRYTDSVKGRFTISRDNAKNTMYLQMNSLKPEDTAVYYCAAGTSWGALASRLENAYSAWGQGTQVTVSS | 3.23 |
| Nanobody 4B5 (VHH) VHH: EVQLVESGGGLVQAGDSLRLSCAASGRTYSRNAMAWFRQAPGKEREFVAGIDWSSENTRYIDSVKGRFTISRDNAKSTMYLQMNSLKPEDTAVYYCAAGTSWGALASRLEAAYSSWGQGTQVTVSS | 2.32 |
| Nanobody 4B8 (VHH) VHH: EVQLVESGGGLVQAGGSLRLSCAASGGTYSGNAMAWFRQAPGKEREFVAGIDWSSENTRYIDSVKGRFTISRDNAKNTMYLQMNSLKPEDTAVYYCAAGTSWGALASRLEAAYSSWGQGTQVTVSS | 2.43 |
| Nanobody 4C5 (VHH) VHH: EVQLVESGGGLVQAGDSLRLSCAASGRPFSAYVMGWFRRAPGKEREFVGGINWNSANTWYTDSVLGRFTISKDNAKNTVYLQMNSLKPEDTAVYYCAAAGGVGYYRYERQYDYWGQGTQVTVSS | 2.44 |
| Nanobody 4D7 (VHH) VHH: EVQLVESGGGLVQAGDSLRLSCAASGRPFSSYVMGWFRRAPGKEREFVGGINWNSGNTWYSDSVLGRFTISRDNAKNTVDLQMNSLKPEDTAVYYCATASGVGYYRYERQYDYWGQGTQVTVSS | 2.42 |
| Nanobody 4C4 (VHH) VHH: EVQLVESGGGLVQAGDSLRLSCAASGRPFMSYVMGWFRRAPGKEREFVGGINWGSGNTWYTDSVLGRFTISRDNAKNTVYLQMNSLKPEDTAVYYCATAAGVGYYRYERQYDYWGQGTQVTVSS | 2.42 |
| Nanobody 4B1 (VHH) VHH: EVQLVESGGGLVQPGGSLRLSCVAAGFTLDYYAIGWFRQAPGKEREGVSCITSDGRTYYADSVKGRFTISRDMAKKMVYLQMNSLKPEDTAVYYCAAGACMGGSGYEADFGSWGQGTQVTVSS | 0.88 |
| Nanobody 4A6 (VHH) VHH: EVQLVESGGGLVQPGGSLRLSCAASPFTLDYYAIGWFRQAPGKEREGVSCSTSHGKTYHADSVKGRFTISRDNAKNTVYLQMNSLKPEDTAVYYCAAGACMGGSGYEADFGSWGQGTQVTVSS | 5.77 |
| Nanobody 4C9 (VHH) VHH: EVQLVESGGGLVQAGDSLRLSCTASERPFSTYVMGWFRRAPGKEREFVGGITWSGINAWYTDSVLGRFTISSDNAKNTVYLQMNSLKPEDTAVYYCAAASGVGRYRYELQYDYWGQGTQVTVSS | 3.88 |
| Nanobody 4B10 (VHH) VHH: EVQLVESGGGLVQAGDSLRLSCAASGRTFSSYAMGWFRQAPGTERQFVARITGKGDSTDYADSVRGRFTISRDNAKNTVYLQMNSLKPEDTAVYYCAADAFNSLLQAGRAEYWGQGTQVTVSS | 0.87 |
| Nanobody 4A9 (VHH) VHH: EVQLVESGGGLVQAGGSLRLSCEASGFTLDYSGVGWFRQAPGKERELVSCISRGGDRAGYANSVKGRFTMSRDNAKNILYLQMNSLKPEDTAVYYCAATHSGSGCYDGAIDYWGKGTLVTVSS | 0.54 |
| Nanobody 4D5 (VHH) VHH: EVQLVESGGGLVQAGGSLRLSCAASGLSFSKYAMGWFRQAPGKQREYVAVISSSDTTYYTNSAKGRFTISRDNAENTVYLQMNSLKPEDTAVYFCAADSYVTALQTLTQISYWGQGTQVTVSS | 1.29 |
| Nanobody 4C11 (VHH) VHH: EVQLVESGGGLVQAGGSLRLSCAASGLSFSRYAMGWFRQAPGKQREYVAVISSSDTTYYTNSAKGRFTISRDNAENTVYLQMNSLKPEDTAVYFCAADSFVTALQTLTQINYWGQGTQVTVSS | 1.19 |
| Nanobody 4C3 (VHH) VHH: EVQLVESGGGLVQAGGSLRLSCAASGRTFSSYAMAWFRQAPGEEREFVATISVSGGYTYYADSVKGRFTISRDNAKNTVYLQMNTLKPEDTAVYYCAAGDSSSWLEHMYDYWGQGTQVTVSS | 3.35 |
